Measured values published in publication PMC9521928 (2022).

Columns and labels:
[1] = molecular target: T1, CPXV14-His (His-tagged recombinant cowpox virus Brighton Red CPXV14) (cowpox virus (Brighton Red strain)); assay: BLI
[2] = molecular target: T1, CPXV14-His (His-tagged recombinant …); assay: BLI; remark: listed apart in the source

B1: soluble recombinant murine FcγRIIB (mCD32B) ectodomain (receptor)
chain: THDLPKAVVKLEPPWIQVLKEDTVTLTCEGTHNPGNSSTQWFHNGRSIRSQVQASYTFKATVNDSGEYRCQMEQTRLSDPVDLGVISDWLLLQTPQLVFLEGETITLRCHSWRNKLLNRISFFHNEKSVRYHHYSSNFSIPKANHSHSGDYYCKGSLGRTLHQSKPVTITVQGPKSSRSLP
koff [1]: 0.00198 s⁻¹
Kd [2]: 2.94 nM
